B1: R1463 (VHH)
VHH: QVQLVESGGGVVQPGGSLRLSCTCSRCTFNWDGMGWFRQAPGKGLEFVATISWSGQEPAYADSVKGRFTISRDNSKNTLYLQMTSLRAEDTAVYYCAAAQYTGASYSILRDQVGYDYWGQGTLVTVSS
notes: also called RX017 VHH-His标签; 对照
B2: R1475 (VHH, not shown: small tags and cut ends)
VHH 1: QVQLVESGGGVVQPGGSLRLSCTCSRCTFNWDGMGWFRQAPGKGLEFVATISWSGQEPAYADSVKGRFTISRDNSKNTLYLQMTSLRAEDTAVYYCAAAQYTGASYSILRDQVGYDYWGQGTLVTVSS
VHH 2: QVQLVESGGGVVQPGGSLRLSCTCSRCTFNWDGMGWFRQAPGKGLEFVATISWSGQEPAYADSVKGRFTISRDNSKNTLYLQMTSLRAEDTAVYYCAAAQYTGASYSILRDQVGYDYWGQGTLVTVSS
notes: also called 人源化多价结合蛋白 R1475; VHH-Linker-VHH-His标签
B3: R1464 (VHH, not shown: small tags and cut ends)
chain (part 1 of 3): HHHHHHQVQLVESGGGVVQPGGSLRLSCTCSRCTFNWDGMGWFRQAPGKGLEFVATISWSGQEPAYADSVKGRFTISRDNSKNTLYLQMTSLRAEDTAVYYCAAAQYTGASYSILRDQVGYDYWGQGTLVTVSS
chain (part 2 of 3): QVQLVESGGGVVQPGGSLRLSCTCSRCTFNWDGMGWFRQAPGKGLEFVATISWSGQEPAYADSVKGRFTISRDNSKNTLYLQMTSLRAEDTAVYYCAAAQYTGASYSILRDQVGYDYWGQGTLVTVSS
chain (part 3 of 3): QVQLVESGGGVVQPGGSLRLSCTCSRCTFNWDGMGWFRQAPGKGLEFVATISWSGQEPAYADSVKGRFTISRDNSKNTLYLQMTSLRAEDTAVYYCAAAQYTGASYSILRDQVGYDYWGQGTLVTVSS
notes: also called 人源化多价结合蛋白 R1464; His标签-VHH-Linker-VHH-Linker-VHH

This note sets out measurements from patent publication CN115057938A (dated 2022).

What is called IC50 is the concentration that gives 50% inhibition. Read a low IC50 as higher potency.

The target of this experiment is T1, Delta变异株SARS-COV-2 RBD蛋白(Ag101) (SARS-COV-2 Delta变异株, UniProt P0DTC2 319-541).
T1 construct: domain: RBD; also called Delta variant SARS-COV-2 RBD protein
The experiment in a line: competition ELISA: Delta RBD coated, blocks ACE2 binding. Background: ELISA stands for enzyme-linked immunosorbent assay.
B1 returned an IC50 of 18.1 pM.
In turn, B2 had an IC50 of 3.34 pM.
For B3, the half-maximal inhibitory concentration (IC50) stood at 4.32 pM.
